Reference: the supplement of paper PMC10567573

B1: ZNF263 (parent)
chain: QPKKLHLCPLCGKNFSNNSNLIRH
B2: ZNF449 (parent)
chain: HKKKSPGEKPHRCPQCGKCFARKS

Variants of: B1
Experiment: protein stability index of a GFP-peptide fusion (GPS, HEK-293T) (PSI 1-6); higher = more stable
Conditions: c terminus: a fixed tail appended
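Also: lentivirally expressed fusions sorted by FACS into six bins by GFP to DsRed ratio, PSI derived from sequencing read proportions per bin multiplied by bin number.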

Protein stability index of substitutions, site by site:
G12: Y 2.68, S 1.99, I 2.44, Q 2.53, F 1.39, T 3.13, D 2.11, M 1.79, P 2.3, N 2.45, K 2.13, A 2.27, C 2.47, R 2.34
S19: Y 2.6, V 2.43, A 2.65, H 2.55, G 1.96, Q 2.69, I 2.58, E 3.14, R 2.5, M 2.7, W 2.67, C 3.3, F 2.54, K 3.37, D 3.24, L 2.96
P2: D 2.42, H 1.68, W 2.14, C 2.13, V 2.3, S 2.53, M 2.27, Y 1.89, G 2.22, R 2.06, I 2.43, F 2.44, E 2.59, A 2.42
S16: P 2.49, M 2.96, D 2.72, F 2.48, T 2.21, C 2.57, E 2.62, I 2.36, N 2.38, Q 2.44, L 2.34, A 2.4
N20: C 3.21, V 2.04, Q 4.04, I 1.94, H 2.69, T 2.94, A 3.25, W 1.57, R 2.01, P 2.49, K 3, Y 2.56, F 1.57, E 3.42, M 2.54
K13: G 2.24, N 2.77, C 2.47, M 2.69, I 1.89, P 1.82, H 2.62, D 1.67, W 1.8, A 3.12, T 2.15, Y 2.91, F 2.51, V 2
C8: Y 1.82, A 2.83, W 1.97, K 2.46, L 1.97, V 3.15, H 2.38, I 2.61, T 3.03, F 2.05, M 3.22, Q 2.71, D 2.4, S 2.41, R 2.56
L5: P 2.09, D 3.25, T 1.71, V 3.02, Y 2.18, E 2.64, Q 2.54, N 2.13, A 2.53, R 2.37, S 2.39, G 2.54, I 2.64, H 2.64
C11: E 3.18, P 3.36, D 3.58, A 3.13, L 2.41, Y 1.68, S 2.74, K 2.62, N 2.8, I 2.16, T 3.11, M 2.07, H 2.88, R 2.83
K3: G 2.65, Y 2.05, Q 2.52, N 2.83, P 2.62, W 1.93, D 2.94, R 2.06, A 2.33, E 2.8
R23: T 2.92, H 2.56, I 1.91, D 3.77, G 2.65, C 3, F 2.42, W 1.76, A 3.08, E 3.06, K 3.19, S 2.78, P 2.93, L 2, Y 1.91, M 2.52
L21: Q 2.38, V 2.85, G 2.62, T 2.56, W 2.44, R 2.64, F 2.32, S 2.19, N 2.44, K 2.87, A 2.56, H 2.83
K4: G 2.63, F 2.17, H 2.49, I 2.85, P 2.69, Q 3.03, Y 2.44, L 2.97, V 2.62, D 3, S 3.18, N 2.92, E 3.36
L10: K 3.44, W 2.38, A 2.5, S 4.12, E 3.47, G 2.87, T 2.84, D 3.78, Y 2.53, M 3.28, N 3.16, I 2.83, C 4.03, R 3.32, V 2.96
I22: D 2.86, S 2.55, A 2.8, Q 3.09, Y 2.69, E 3.45, V 2.73, T 2.35, K 2.33, H 2.76, F 2.47, P 2.19, N 2.5, G 1.98, W 1.79
F15: H 3.33, N 2.45, E 2.07, C 2.53, K 2.06, Y 2.46, V 1.82, G 1.8, I 2.36, P 2.22, L 2, W 1.95
N18: I 2.33, C 2.48, T 2.45, P 3.28, E 3.66, V 2.86, S 2.39, R 3.36, D 2.8, F 2.76, G 1.8, Y 3.22
N17: S 2.66, Y 2.23, M 2.26, Q 2.42, K 2.28, C 2.33, H 2.43, R 2.07
H6: Y 2.88, N 2.14, L 2.19, I 2.05, A 2.02, E 2.38, G 2.39, M 2.24, T 3.08, D 2.95, S 1.71, V 2.12, P 2.11, Q 2.22, W 2.05
P9: R 2.25, K 2.63, Y 2.61, D 2.56, F 1.93, E 2.56, T 2.66, I 1.89, N 2.4, G 2.26, V 2.1, A 2.43
Q1: C 2.69, A 2.97, P 2.43, V 2.12, F 2.21, E 3.16, Y 2.23, H 2.69, R 2.47, G 2.33, I 2.61, N 2.83, S 2.39, M 2.6, K 2.64
N14: L 2.84, A 3.29, F 2.69, I 3.33, K 2.94, D 2.08, T 2.97, W 3.51, Y 2.57, M 2.83, C 3.93, G 2.63, V 3.04, S 3.48, Q 3.1
L7: M 2.59, N 2.18, F 2.78, I 3.56, P 2.07, C 2.3, V 3.04, W 2.38, H 2.46, D 2.1
H24: S 2.4, P 2.56, F 2.44, T 2.35, N 2.22, A 1.74, W 2.38, C 1.84, R 2.07, D 2.11, Q 2.43, M 2.31

Variants of: B2
Experiment: as above
Conditions: c terminus: a fixed tail appended

Protein stability index: each site, then its substitutions
K23: R 3.3, Y 3.12, W 2.68, S 2.03, P 2.43
S24: D 3.97, F 1.99, P 3.76, I 3.32, K 3.99, V 1.78, T 3.8, C 3.82, W 2
